# Legend:
# [1] = tested on: canine dental pulp stem cells; experiment: Induction of dental pulp and dentin by dental pulp stem cells attached to treated fine-grained dentin particles; assay type: cell-based; details: 7 days culture; for cell adhesion to treated dentin: fine-grained dentin treated for 10 minutes (0.05% trypsin; 1 mM EDTA; 0.05% chymotrypsin; 0.1 mg/mL MMP3), HE stain; for induction of the dental pulp stem cells into the dental pulp and dentin: fine-grained dentin treated for 10 minutes, vs untreated dentin
# Protocol: A tooth was extracted from a dog. The cementum and dental pulp of the tooth were removed mechanically. The tooth was then rinsed with tapping water for 3 hours, and then crushed into grains. Fine grains of dentin particles having a diameter of 500 μm to 1,000 μm (fine-grained dentin) were separated by use of a sieve. The fine-grained dentin particles was treated with a mixture liquid containing chloroform and methanol at room temperature for 6 hours, and then, with LiCl (8.0 M) at 4° C. for 24 hours. The fine-grained dentin was then inactivated in distilled water at 55° C. for 24 hours. Thereafter, the fine-grained dentin were divided into six groups: group (i) treated with 0.05% trypsin for 10 minutes; group (ii) treated with 0.05% trypsin and 1 mM EDTA for 10 minutes; a group (iii) treated with 1 mM of EDTA for 10 minutes; group (iv) treated with 0.05% chymotrypsin for 10 minutes; group (v) treated with 0.1 mg/mL MMP3 for 10 minutes; and group (vi) subjected to no treatment. Three fine grains of each of the groups were mixed with 2×10^5 canine dental pulp stem cells. Each mixture underwent centrifugation at 2,000 rpm for 5 minutes, followed by culture in Dulbecco's Modified Eagle's Medium containing 10% FBS at 37° C. for 7 days in the presence of 5% CO2. The culture was then fixed overnight with 4% paraformaldehyde. Paraffin sections were prepared according to a common method, and sliced into 5 μm thick ultrathin sections. The ultrathin sections underwent HE stain.
# [2] = tested on: pulpectomized root canal of middle or advanced aged dog; experiment: Dental pulp regeneration following pulpectomy by autologous transplantation of dental pulp stem cells after trypsin pretreatment of the root canal; assay type: in vivo
# Text: Under general anesthesia, anterior teeth of upper and lower jaws of middle or advanced aged dog and young aged dog were pulpectomized. For each tooth, the root canal was enlarged with #50-55 to the apex, and was irrigated alternately with a 5% sodium hypochlorite solution and a 3% hydrogen peroxide solution, followed by washing with physiologic saline. The root canal was completely dried with paper points, and hemorrhage was controlled. The root canal was completely closed with a temporary seal of cement and resin. After 7 to 14 days following the pulpectomy, the temporary seal was removed, and the root canal underwent the alternate washing, and then, washing with physiologic saline. Smear clean (3% EDTA) was then allowed to react for 2 minutes. The root canal was then further washed with physiologic saline, and dried. Thereafter, FRANCETIN⋅T⋅POWDER (2500 USP of crystalized trypsin per 10 mg) (MOCHIDA PHARMACEUTICAL CO., LTD.) at a concentration of 50 μg/ml (0.05%) or 500 μg/ml (0.5%) was allowed to react in the root canal for 10 minutes or 30 minutes. Washing with physiologic saline was then performed. As a control, a tooth on the opposite side was not treated. Further, FRANCETIN⋅T⋅POWDER was mixed with a nanobubble liquid into a 50 μg/ml (0.05%) solution. The solution was allowed to act in a similar manner for 10 minutes, followed by washing with physiologic saline. A root canal filler was prepared by suspending 1×10^6 autologous dental pulp stem cells, which had been membrane-isolated, in 40 μl of a scaffold (Koken Atelocollagen Implant, KOKEN CO., LTD.), and by suspending 3 μl of 100 μg/ml G-CSF (NEUTROGIN, Chugai Pharmaceutical Co., Ltd.). The root canal filler prepared was injected into each root canal such that no air bubbles were contained. The mobilized dental pulp stem cells were isolated using the membrane-isolation-type culture device described above. A hemostatic gelatin sponge (Spongel) was put on the root canal filler. The cavity was completely sealed with cement and resin. On day 14 following the transplantation, the teeth were extracted. According to a common method, 5 μm paraffin sections of longitudinal cross section were prepared. The paraffin sections were then H-E stained to undergo morphological observation. To analyze angiogenesis, the sections were immunostained with BS-1 lectin. Amounts of regenerated dental pulp of four sections were measured for each sample, and an average amount of four samples was determined as the amount of regenerated dental pulp of the sample.
# [3] = tested on: TGW cells (human neuroblastoma cell line); experiment: Neurite outgrowth in TGW cells with culture conditioned medium of senescent dental pulp stem cells; assay type: cell-based; details: positive control, 50 ng/μl; after 48 hours
# Protocol: Non-separated 22nd-passage human dental pulp stem cells were brought into a state of 50% confluence. The medium was replaced with a serum-free medium. After 24 hours, the culture conditioned medium was collected. The supernatant was concentrated approximately 40-fold using Amicon Ultra-15 Centrifugal Filter Unit with Ultracel-3 membrane (Millipore, Billerica, Mass.) with 3-kDa molecular cut. Proteinase inhibitors (Halt™ proteinase inhibitor cocktail EDTA-free, Thermo Scientific, Rockford, Ill., USA) was added. The mixture was dispended to be stored at −80° C. Protein content was measured using Bradford Ultra™ (Expedeon, Cambridge, UK).
# The culture supernatant (5 μg/ml proteins) prepared in 1 above was added to TGW cells (human neuroblastoma cell line). Further, an ALK5 inhibitor (SB431542, 10 ng/μl) was added to a part of the resultant mixture, and a CCR3 antagonist (SB328437, 5 ng/μl) was added to another part of the resultant mixture. TGW cells to which only the culture supernatant was added was used as a negative control. […] Neurite outgrowth after 48 hours was observed and measured with an inverted microscope (Leica).
# [4] = 50 μg/ml (0.05%), no dental pulp stem cells transplanted
molecule,measurement,setting,value
O=C(O)CN(CCN(CC(=O)O)CC(=O)O)CC(=O)O [EDTA],cell adhesion to treated dentin,[1],a less number of cells adhered
same,induction of the dental pulp stem cells into the dental pulp and dentin,[1],induction into the dentin was promoted
"MMP3: 0.1 mg/mL MMP3, dentin treatment group (v)",cell adhesion to treated dentin,[1],inferior in cell adhesiveness
chymotrypsin,cell adhesion to treated dentin,[1],inferior in cell adhesiveness
"trypsin (protein, UniProt P00760 24-246, looked up, FRANCETIN⋅T⋅POWDER (2500 USP of crystalized trypsin per 10 mg), serine protease dental pretreatment material) Serine protease 1: IVGGYTCGANTVPYQVSLNSGYHFCGGSLINSQWVVSAAHCYKSGIQVRLGEDNINVVEGNEQFISASKSIVHPSYNSNTLNNDIMLIKLKSAASLNSRVASISLPTSCASAGTQCLISGWGNTKSSGTSYPDVLKCLKAPILSDSSCKSAYPGQITSNMFCAGYLEGGKDSCQGDSGGPVVCSGKLQGIVSWGSGCAQKNKPGVYTKVCNYVSWIKQTIASN",increase of the amount of regenerated dental pulp,"[2]; 50 μg/ml (0.05%) for 10 minutes prior to root canal filler, day 14, vs no pretreatment",2.5 times
same,amount of regenerated dental pulp,"[2]; 50 μg/ml (0.05%) for 30 minutes, compared with same concentration for 10 minutes, day 14",doubled
same,dental pulp regeneration,[2]; [4],almost no dental pulp was regenerated
same,inflammation around the periapical region,[2]; [4],no inflammation occurred
same,amount of regenerated dental pulp,"[2]; 500 μg/ml (0.5%) for 10 minutes, compared with 50 μg/ml (0.05%), day 14",did not cause any significant difference
same,abnormality at the periapical region,"[2]; after trypsin pretreatment and transplantation, day 14",Abnormality such as inflammation was not observed
same,"inflammatory cells, necrotic layer in dental pulp formed after treatment",[2]; day 14,"did not show any increase of inflammatory cells, formation of necrotic layer"
same,angiogenesis in the regenerated dental pulp (BS-1 lectin),"[2]; day 14, each pretreated sample",angiogenesis was observed
same,"calcification in the periapical tissue (Masson Trichrome stain, vimentin immunostaining)","[2]; dog 5 years of age, 0.05% trypsin 10 minutes, day 14",decomposed the calcification in the periapical tissue
same,cell adhesion to treated dentin,[1],cell adhesion was facilitated
same,induction of the dental pulp stem cells into the dental pulp and dentin,[1],more promoted
"GDNF: GDNF (Peproteck), positive control for neurite outgrowth (protein, UniProt P39905 78-211, looked up) Glial cell line-derived …: SPDKQMAVLPRRERNRQAAAANPENSRGKGRRGQRGKNRGCVLTAIHLNVTDLGLGYETKEELIFRYCSGSCDAAETTYDKILKNLSRNRRLVSDKVGQACCRPIAFDDDLSFLDDNLVYHILRKHSAKRCGCI",Neurite Outgrowth Length,[3],10540.1 ± 4800.7 μm

# Source: US10668134B2, “Dental pretreatment material and dental tissue regeneration kit” (National Center for Geriatrics and Gerontology, priority 2016, dated 2020)
